Measured values as given in the RNAGym collection of RNA variant scans (doi:10.1093/molbev/msab373).

B1: Azoarcus group I ribozyme (parent)
chain: GUGCCUUGCGCCGGGAAACCACGCAAGGGAUGGUGUCAAAUUCGGCGAAACCUAAGCGCCCGCCCGGGCGUAUGGCAACGCCGAGCCAAGCUUCGGCGCCUGCGCCGAUGAAGGUGUAGAGACUAGACGGCACCCACCUAAGGCAAACGCUAUGGUGAAGGCAUAGUCCAGGGAGUGGCGAAAGUCACACAAACCGG

Variants of: B1
Test: reverse-splicing fitness (ratio to wild type); higher = more active; in vitro selection; Mg2+ level not given
Summary of the method: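 An in vitro group I ribozyme library with randomized positions was T7-transcribed and gel-purified. In triplicate, 10 pmol RNA in EPPS pH 7.5 was reacted with 50 pmoles of a 30-nt RNA substrate for 1 h at 37 °C across several added MgCl2 levels (1–48 mM), then stopped with EDTA. Products were reverse transcribed from a substrate-complementary primer, PCR-amplified and sequenced (HiSeq 4000). Fitness is a variant's read proportion after selection over that before, normalised to wild type.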
GUGCCUUGCGCCGGGAAACCACGCAAGGGAUGGUGUCAAAUUCGGCGAAACCUAAGCGCCCGCCCGGGCGUAUGGCAACGCAGAGCCAAGCUUCGGCGCCUGCGCCGAUGUAGGUGUAGCGACUAGACGGCACCCACCUAAGGCUAACGCUAUGGUGAAGGCAUAGUCGAGGGAGAGGCGAAAGUCACACAAACCGG [C82A A111U A120C A145U C169G U176A] gave a reverse-splicing fitness of 0.0204. Work on GUGCCUUGCGCCGGGAAACCACGCAAGGGAUGGUGUCAAAUUCGGCGAAACCUAAGCGCCCGCCCGGGCGUAUGGCAACGCAGAGCCAAGCUUCGGCGCCUGCGCCGAUGUAGGUGUAGCGACUAGACGGCACCCACCUAAGGCUAACGCUAUGGUGAAGGCAUAGUCGAGGGAGCGGCGAAAGUCACACAAACCGG [C82A A111U A120C A145U C169G U176C] yielded a reverse-splicing fitness of 0.0253. GUGCCUUGCGCCGGGAAACCACGCAAGGGAUGGUGUCAAAUUCGGCGAAACCUAAGCGCCCGCCCGGGCGUAUGGCAACGCAGAGCCAAGCUUCGGCGCCUGCGCCGAUGUAGGUGUAGCGACUAGACGGCACCCACCUAAGGCUAACGCUAUGGUGAAGGCAUAGUCGAGGGAGGGGCGAAAGUCACACAAACCGG [C82A A111U A120C A145U C169G U176G] showed a reverse-splicing fitness of 0.00642. Work on GUGCCUUGCGCCGGGAAACCACGCAAGGGAUGGUGUCAAAUUCGGCGAAACCUAAGCGCCCGCCCGGGCGUAUGGCAACGCAGAGCCAAGCUUCGGCGCCUGCGCCGAUGUAGGUGUAGCGACUAGACGGCACCCACCUAAGGCUAACGCUAUGGUGAAGGCAUAGUCAAGGGAGAGGCGAAAGUCACACAAACCGG [C82A A111U A120C A145U C169A U176A] yielded a reverse-splicing fitness of 0.0227. GUGCCUUGCGCCGGGAAACCACGCAAGGGAUGGUGUCAAAUUCGGCGAAACCUAAGCGCCCGCCCGGGCGUAUGGCAACGCAGAGCCAAGCUUCGGCGCCUGCGCCGAUGUAGGUGUAGCGACUAGACGGCACCCACCUAAGGCUAACGCUAUGGUGAAGGCAUAGUCAAGGGAGGGGCGAAAGUCACACAAACCGG [C82A A111U A120C A145U C169A U176G] gave a reverse-splicing fitness of 0.00804. Variant GUGCCUUGCGCCGGGAAACCACGCAAGGGAUGGUGUCAAAUUCGGCGAAACCUAAGCGCCCGCCCGGGCGUAUGGCAACGCAGAGCCAAGCUUCGGCGCCUGCGCCGAUGUAGGUGUAGCGACUAGACGGCACCCACCUAAGGCUAACGCUAUGGUGAAGGCAUAGUCAAGGGAGCGGCGAAAGUCACACAAACCGG [C82A A111U A120C A145U C169A U176C] has a reverse-splicing fitness of 0.0235. Variant GUGCCUUGCGCCGGGAAACCACGCAAGGGAUGGUGUCAAAUUCGGCGAAACCUAAGCGCCCGCCCGGGCGUAUGGCAACGCAGAGCCAAGCUUCGGCGCCUGCGCCGAUGUAGGUGUAGCGACUAGACGGCACCCACCUAAGGCUAACGUUAUGGUGAAGGCAUAGUCGAGGGAGUGGCGAAAGUCACACAAACCGG [C82A A111U A120C A145U C150U C169G] has a reverse-splicing fitness of 0.00959. Variant GUGCCUUGCGCCGGGAAACCACGCAAGGGAUGGUGUCAAAUUCGGCGAAACCUAAGCGCCCGCCCGGGCGUAUGGCAACGCAGAGCCAAGCUUCGGCGCCUGCGCCGAUGUAGGUGUAGCGACUAGACGGCACCCACCUAAGGCUAACGUUAUGGUGAAGGCAUAGUCUAGGGAGUGGCGAAAGUCACACAAACCGG [C82A A111U A120C A145U C150U C169U] has a reverse-splicing fitness of 0.0116. In the case of GUGCCUUGCGCCGGGAAACCACGCAAGGGAUGGUGUCAAAUUCGGCGAAACCUAAGCGCCCGCCCGGGCGUAUGGCAACGCAGAGCCAAGCUUCGGCGCCUGCGCCGAUGUAGGUGUAGCGACUAGACGGCACCCACCUAAGGCUAACGUUAUGGUGAAGGCAUAGUCAAGGGAGGGGCGAAAGUCACACAAACCGG [C82A A111U A120C A145U C150U C169A U176G], the reverse-splicing fitness is reported as 0.00837. For GUGCCUUGCGCCGGGAAACCACGCAAGGGAUGGUGUCAAAUUCGGCGAAACCUAAGCGCCCGCCCGGGCGUAUGGCAACGCAGAGCCAAGCUUCGGCGCCUGCGCCGAUGUAGGUGUAGCGACUAGACGGCACCCACCUAAGGCUAACGUUAUGGUGAAGGCAUAGUCCAGGGAGCGGCGAAAGUCACACAAACCGG [C82A A111U A120C A145U C150U U176C], the reverse-splicing fitness was 0.0191. Variant GUGCCUUGCGCCGGGAAACCACGCAAGGGAUGGUGUCAAAUUCGGCGAAACCUAAGCGCCCGCCCGGGCGUAUGGCAACGCAGAGCCAAGCUUCGGCGCCUGCGCCGAUGUAGGUGUAGCGACUAGACGGCACCCACCUAAGGCUAACGUUAUGGUGAAGGCAUAGUCCAGGGAGAGGCGAAAGUCACACAAACCGG [C82A A111U A120C A145U C150U U176A] has a reverse-splicing fitness of 0.0138. For GUGCCUUGCGCCGGGAAACCACGCAAGGGAUGGUGUCAAAUUCGGCGAAACCUAAGCGCCCGCCCGGGCGUAUGGCAACGCAGAGCCAAGCUUCGGCGCCUGCGCCGAUGUAGGUGUAGCGACUAGACGGCACCCACCUAAGGCUAACGUUAUGGUGAAGGCAUAGUCCAGGGAGGGGCGAAAGUCACACAAACCGG [C82A A111U A120C A145U C150U U176G], the reverse-splicing fitness was 0.00684. For GUGCCUUGCGCCGGGAAACCACGCAAGGGAUGGUGUCAAAUUCGGCGAAACCUAAGCGCCCGCCCGGGCGUAUGGCAACGCAGAGCCAAGCUUCGGCGCCUGCGCCGAUGUAGGUGUAGCGACUAGACGGCACCCACCUAAGGCUAACGCUAUGGUGAAGGCAUAGUCCAGGGAGGGGCGAAAGUCACACAAACCGG [C82A A111U A120C A145U U176G], the reverse-splicing fitness was 0.00733. GUGCCUUGCGCCGGGAAACCACGCAAGGGAUGGUGUCAAAUUCGGCGAAACCUAAGCGCCCGCCCGGGCGUAUGGCAACGCAGAGCCAAGCUUCGGCGCCUGCGCCGAUGUAGGUGUAGCGACUAGACGGCACCCACCUAAGGCUAACGCUAUGGUGAAGGCAUAGUCCAGGGAGCGGCGAAAGUCACACAAACCGG [C82A A111U A120C A145U U176C] showed a reverse-splicing fitness of 0.0276. For GUGCCUUGCGCCGGGAAACCACGCAAGGGAUGGUGUCAAAUUCGGCGAAACCUAAGCGCCCGCCCGGGCGUAUGGCAACGCAGAGCCAAGCUUCGGCGCCUGCGCCGAUGUAGGUGUAGCGACUAGACGGCACCCACCUAAGGCUAACGCUAUGGUGAAGGCAUAGUCCAGGGAGAGGCGAAAGUCACACAAACCGG [C82A A111U A120C A145U U176A], the reverse-splicing fitness was 0.0168.
